Measurements reported in patent publication US20080058272A1, “Nonamer Peptides for Cancer Treatment” (priority 2006, published 2008).

T1: HLA-A2 (human), P04439
T1 chain: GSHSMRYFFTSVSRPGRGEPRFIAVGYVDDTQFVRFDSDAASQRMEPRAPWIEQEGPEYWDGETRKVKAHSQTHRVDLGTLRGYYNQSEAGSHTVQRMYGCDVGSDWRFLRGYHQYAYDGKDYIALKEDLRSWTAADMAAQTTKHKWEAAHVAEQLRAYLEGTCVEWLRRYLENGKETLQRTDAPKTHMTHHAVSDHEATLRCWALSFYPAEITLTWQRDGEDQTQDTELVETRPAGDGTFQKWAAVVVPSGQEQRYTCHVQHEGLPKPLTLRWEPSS


Biological target: T1, HLA-A2 (human), P04439
Experiment: competitive binding assay (flow cytometry)
Conditions: modification not given

Row | IC50 | Binder
1 | 4.6 µM | ALVCYGPGV [FAPα463-471 (471V) (…)]
2 | 25.4 µM | KLLEENKEV [FAPα486-494 (487L, 494V) (…)]
3 | 21.3 µM | KLLEENKEL [FAPα486-494 (487L) (…)]

Second part, the binder before the results:

Row | Binder | IC50
4 | ALLVMCIVL [FAPα18-26 (…)] | 650 µM
5 | VLALLVMCI [FAPα16-24 (…)] | 150 µM
6 | ALVCYGPGL [FAPα463-471 (471L) (…)] | 3.9 µM
